B1: Germ cell-less protein-like 1 (Homo sapiens), Q96IK5 (parent)
chain: MGSLSSRVLRQPRPALAQQAQGARAGGSARRPDTGDDAAGHGFCYCAGSHKRKRSSGSFCYCHPDSETDEDEEEGDEQQRLLNTPRRKKLKSTSKYIYQTLFLNGENSDIKICALGEEWSLHKIYLCQSGYFSSMFSGSWKESSMNIIELEIPDQNIDVEALQVAFGSLYRDDVLIKPSRVVAILAAACLLQLDGLIQQCGETMKETVNVKTVCGYYTSAGTYGLDSVKKKCLEWLLNNLMTHQNVELFKELSINVMKQLIGSSNLFVMQVEMDIYTALKKWMFLQLVPSWNGSLKQLLTETDVWFSKQRKDFEGMAFLETEQGKPFVSVFRHLRLQYIISDLASARIIEQDAVVPSEWLSSVYKQQWFAMLRAEQDSEVGPQEINKEELEGNSMRCGRKLAKDGEYCWRWTGFNFGFDLLVTYTNRYIIFKRNTLNQPCSGSVSLQPRRSIAFRLRLASFDSSGKLICSRTTGYQILTLEKDQEQVVMNLDSRLLIFPLYICCNFLYISPEKKN
B2: Melanoma-associated antigen 8 (Homo sapiens), P43361 (parent)
chain: MLLGQKSQRYKAEEGLQAQGEAPGLMDVQIPTAEEQKAASSSSTLIMGTLEEVTDSGSPSPPQSPEGASSSLTVTDSTLWSQSDEGSSSNEEEGPSTSPDPAHLESLFREALDEKVAELVRFLLRKYQIKEPVTKAEMLESVIKNYKNHFPDIFSKASECMQVIFGIDVKEVDPAGHSYILVTCLGLSYDGLLGDDQSTPKTGLLIIVLGMILMEGSRAPEEAIWEALSVMGLYDGREHSVYWKLRKLLTQEWVQENYLEYRQAPGSDPVRYEFLWGPRALAETSYVKVLEHVVRVNARVRISYPSLHEEALGEEKGV
B3: Isoform 6 of F-box only protein 11 (Homo sapiens), Q86XK2-6 (parent)
chain: MVAEESGPGAQNSPYQLRRKTLLPKRTACPTKNSMEGASTSTTENFGHRAKRARVSGKSQDLSAAPAEQYLQEKLPDEVVLKIFSYLLEQDLCRAACVCKRFSELANDPILWKRLYMEVFEYTRPMMHPEPGKFYQINPEEYEHPNPWKESFQQLYKGAHVKPGFAEHFYSNPARYKGRENMLYYDTIEDALGGVQEAHFDGLIFVHSGIYTDEWIYIESPITMIGAAPGKVADKVIIENTRDSTFVFMEGSEDAYVGYMTIRFNPDDKSAQHHNAHHCLEITVNCSPIIDHCIIRSTCTVGSAVCVSGQGACPTIKHCNISDCENVGLYITDHAQGIYEDNEISNNALAGIWVKNHGNPIIRRNHIHHGRDVGVFTFDHGMGYFESCNIHRNRIAGFEVKAYANPTVVRCEIHHGQTGGIYVHEKGRGQFIENKIYANNFAGVWITSNSDPTIRGNSIFNGNQGGVYIFGDGRGLIEGNDIYGNALAGIQIRTNSCPIVRHNKIHDGQHGGIYVHEKGQGVIEENEVYSNTLAGVWVTTGSTPVLRRNRIHSGKQVGVYFYDNGHGVLEDNDIYNHMYSGVQIRTGSNPKIRRNKIWGGQNGGILVYNSGLGCIEDNEIFDNAMAGVWIKTDSNPTLRRNKIHDGRDGGICIFNGGRGLLEENDIFRNAQAGVLISTNSHPILRKNRIFDGFAAGIEITNHATATLEGNQIFNNRFGGLFLASGVNVTMKDNKIMNNQDAIEKAVSRGQCLYKISSYTSYPMHDFYRCHTCNTTDRNAICVNCIKKCHQGHDVEFIRHDRFFCDCGAGTLSNPCTLAGEPTHDTDTLYDSAPPIESNTLQHN
B4: U2 small nuclear ribonucleoprotein A' (Homo sapiens), P09661 (parent)
chain: MVKLTAELIEQAAQYTNAVRDRELDLRGYKIPVIENLGATLDQFDAIDFSDNEIRKLDGFPLLRRLKTLLVNNNRICRIGEGLDQALPCLTELILTNNSLVELGDLDPLASLKSLTYLSILRNPVTNKKHYRLYVIYKVPQVRVLDFQKVKLKERQEAEKMFKGKRGAQLAKDIARRSKTFNPGAGLPTDKKKGGPSPGDVEAIKNAIANASTLAEVERLKGLLQSGQIPGRERRSGPTDDGEEEMEEDTVTNGS
B5: Dynein axonemal assembly factor 19 (Homo sapiens), Q8IW40 (parent)
chain: MERNDIINFKALEKELQAALTADEKYKRENAAKLRAVEQRVASYEEFRGIVLASHLKPLERKDKMGGKRTVPWNCHTIQGRTFQDVATEISPEKAPLQPETSADFYRDWRRHLPSGPERYQALLQLGGPRLGCLFQTDVGFGLLGELLVALADHVGPADRAAVLGILCSLASTGRFTLNLSLLSRAERESCKGLFQKLQAMGNPRSVKEGLSWEEQGLEEQSGGLQEEERLLQELLELYQVD
B6: Keratin-associated protein 26-1 (Homo sapiens), Q6PEX3 (parent)
chain: MSCPNYCSGNSNSGSLRTSRHIPLTSIDLCPTSVSCGDVLYLPTSSQDHTWVTDNCQETCGEPTSCQPVHCETGNLETSCGSSTAYYVPRPCQGSSFLPASFFSSSCLPVSCRPQRYVSSGCRPLRPLLNSYQPIGDCVPNAYRPQFCLSKSCQPQNLLTSGCQPSSCLAYRPQSLHVVSSSLRPLGPLFSGCQPLTHVFSTCRPSCSGL
B7: Guanine nucleotide exchange factor for Rab-3A (Homo sapiens), Q8TBN0 (parent)
chain: MWSGPPQPDQGLPPPLAAVPVPWKSTDPCQGHRESPGALVETSAGEEAQGQEGPAAAQLDVLRLRSSSMEIREKGSEFLKEELHRAQKELKLKDEECERLSKVREQLEQELEELTASLFEEAHKMVREANMKQAASEKQLKEARGKIDMLQAEVTALKTLVITSTPASPNRELHPQLLSPTKAGPRKGHSRHKSTSSTLCPAVCPAAGHTLTPDREGKEVDTILFAEFQAWRESPTLDKTCPFLERVYREDVGPCLDFTMQELSVLVRAAVEDNTLTIEPVASQTLPTVKVAEVDCSSTNTCALSGLTRTCRHRIRLGDSKSHYYISPSSRARITAVCNFFTYIRYIQQGLVRQDAEPMFWEIMRLRKEMSLAKLGFFPQEA
partner: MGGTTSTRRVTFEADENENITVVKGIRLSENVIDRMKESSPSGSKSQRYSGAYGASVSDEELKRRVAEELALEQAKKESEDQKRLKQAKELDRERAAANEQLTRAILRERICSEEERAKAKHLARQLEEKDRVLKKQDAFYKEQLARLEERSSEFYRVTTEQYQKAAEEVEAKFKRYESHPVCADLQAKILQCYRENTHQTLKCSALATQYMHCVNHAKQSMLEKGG
B8: E3 ubiquitin-protein ligase RNF8 (Homo sapiens), O76064 (parent)
chain: MGEPGFFVTGDRAGGRSWCLRRVGMSAGWLLLEDGCEVTVGRGFGVTYQLVSKICPLMISRNHCVLKQNPEGQWTIMDNKSLNGVWLNRARLEPLRVYSIHQGDYIQLGVPLENKENAEYEYEVTEEDWETIYPCLSPKNDQMIEKNKELRTKRKFSLDELAGPGAEGPSNLKSKINKVSCESGQPVKSQGKGEVASTPSDNLDPKLTALEPSKTTGAPIYPGFPKVTEVHHEQKASNSSASQRSLQMFKVTMSRILRLKIQMQEKHEAVMNVKKQTQKGNSKKVVQMEQELQDLQSQLCAEQAQQQARVEQLEKTFQEEEQHLQGLEIAQGEKDLKQQLAQALQEHWALMEELNRSKKDFEAIIQAKNKELEQTKEEKEKMQAQKEEVLSHMNDVLENELQCIICSEYFIEAVTLNCAHSFCSYCINEWMKRKIECPICRKDIKSKTYSLVLDNCINKMVNNLSSEVKERRIVLIRERKAKRLF
B9: Leukocyte receptor cluster member 1 (Homo sapiens), Q96BZ8 (parent)
chain: MNILPKKSWHVRNKDNVARVRRDEAQAREEEKERERRVLLAQQEARTEFLRKKARHQNSLPELEAAEAGAPGSGPVDLFRELLEEGKGVIRGNKEYKEEKRQEKERQEKALGILTYLGQSAAEAQTQPPWYQLPPGRGGPPPGPAPDEKIKSRLDPLREMQKHLGKKRQHGGDEGSRSRKEKEGSEKQRPKEPPSLDQLRAERLRREAAERSRAEALLARVQGRALQEGQPEEDETDDRRRRYNSQFNPQLARRPRQQDPHLTH

Variants of: B1
Conditions: with cul3_human CUL3, Q13618

Question: With Y61S as the variant, how does the “effect of a mutation on the interaction” value read?
Answer: with no effect

Question: I340V was tested. Which “effect of a mutation on the interaction” value did it give?
Answer: with no effect

Variants of: B1
Conditions: with FAM167A

Question: Which “effect of a mutation on the interaction” value does the source give for Y61S here?
Answer: with no effect

Question: How did the “effect of a mutation on the interaction” value turn out when I340V was run?
Answer: with no effect

Variants of: B2
Conditions: with bex5_human BEX5, Q5H9J7
Sequence of bex5_human BEX5, Q5H9J7 (Q5H9J7 whole entry): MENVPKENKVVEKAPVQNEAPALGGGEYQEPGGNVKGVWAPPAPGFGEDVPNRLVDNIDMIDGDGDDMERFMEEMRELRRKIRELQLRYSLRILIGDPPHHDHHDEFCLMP

Question: For R121H, which “effect of a mutation on the interaction” value is on record?
Answer: with no effect

Question: For R9C, which “effect of a mutation on the interaction” value is on record?
Answer: with no effect

Variants of: B3
Conditions: with skp1_human SKP1, P63208
Sequence of skp1_human SKP1, P63208 (P63208 whole entry): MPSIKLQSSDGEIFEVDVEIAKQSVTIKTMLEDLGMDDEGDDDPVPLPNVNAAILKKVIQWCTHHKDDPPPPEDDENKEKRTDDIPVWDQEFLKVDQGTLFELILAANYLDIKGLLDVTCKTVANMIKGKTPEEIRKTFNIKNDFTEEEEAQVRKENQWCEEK

Question: How did the “effect of a mutation on the interaction” value turn out when A703T was run?
Answer: with no effect

Question: With D507N as the variant, how does the “effect of a mutation on the interaction” value read?
Answer: with no effect

Question: For T532S, which “effect of a mutation on the interaction” value is on record?
Answer: with no effect

Variants of: B4
Conditions: with ru2b_human SNRPB2, P08579
Sequence of ru2b_human SNRPB2, P08579 (P08579 whole entry): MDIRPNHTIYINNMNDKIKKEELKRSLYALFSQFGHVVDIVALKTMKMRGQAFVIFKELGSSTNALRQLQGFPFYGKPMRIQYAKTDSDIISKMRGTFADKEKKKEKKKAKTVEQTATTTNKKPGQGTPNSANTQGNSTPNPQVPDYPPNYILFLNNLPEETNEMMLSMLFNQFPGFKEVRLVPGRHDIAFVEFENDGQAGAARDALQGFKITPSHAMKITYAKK

Question: With S99N as the variant, how does the “effect of a mutation on the interaction” value read?
Answer: with no effect

Question: With P32S as the variant, how does the “effect of a mutation on the interaction” value read?
Answer: with no effect

Variants of: B5
Conditions: with vac14_human VAC14, Q08AM6
Sequence of vac14_human VAC14, Q08AM6 (Q08AM6 whole entry): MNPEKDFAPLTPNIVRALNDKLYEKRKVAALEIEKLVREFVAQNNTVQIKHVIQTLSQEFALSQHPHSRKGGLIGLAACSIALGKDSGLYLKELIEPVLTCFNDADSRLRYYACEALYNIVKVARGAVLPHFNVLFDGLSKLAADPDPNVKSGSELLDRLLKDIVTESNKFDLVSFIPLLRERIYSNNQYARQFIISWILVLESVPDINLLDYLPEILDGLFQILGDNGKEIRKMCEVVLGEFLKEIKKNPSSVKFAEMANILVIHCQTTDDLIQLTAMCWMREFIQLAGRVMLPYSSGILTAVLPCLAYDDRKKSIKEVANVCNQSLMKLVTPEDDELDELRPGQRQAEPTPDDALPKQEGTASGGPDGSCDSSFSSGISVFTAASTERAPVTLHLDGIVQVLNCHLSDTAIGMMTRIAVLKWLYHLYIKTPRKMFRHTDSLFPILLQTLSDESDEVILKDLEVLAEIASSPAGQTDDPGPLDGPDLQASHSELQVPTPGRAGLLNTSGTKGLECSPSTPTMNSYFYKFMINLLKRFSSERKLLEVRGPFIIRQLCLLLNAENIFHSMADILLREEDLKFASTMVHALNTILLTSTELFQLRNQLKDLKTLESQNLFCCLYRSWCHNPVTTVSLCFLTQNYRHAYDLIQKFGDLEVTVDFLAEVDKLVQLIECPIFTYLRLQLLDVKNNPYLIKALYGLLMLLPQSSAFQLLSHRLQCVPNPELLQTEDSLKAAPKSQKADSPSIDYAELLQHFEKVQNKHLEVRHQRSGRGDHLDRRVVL

Question: H154P was tested. Which “effect of a mutation on the interaction” value did it give?
Answer: with no effect

Question: H112N was tested. Which “effect of a mutation on the interaction” value did it give?
Answer: with no effect

Variants of: B5
Conditions: with hgs_human HGS

Question: For K27R, which “effect of a mutation on the interaction” value is on record?
Answer: with no effect

Variants of: B6
Conditions: with grn_human GRN

Question: For S26Y, which “effect of a mutation on the interaction” value is on record?
Answer: disrupting interaction strength

Variants of: B6
Conditions: with ccnjl_human CCNJL

Question: Which “effect of a mutation on the interaction” value does the source give for S26Y here?
Answer: with no effect

Variants of: B7
Conditions: with mic19_human CHCHD3, Q9NX63

Question: Which “effect of a mutation on the interaction” value does the source give for Q49R here?
Answer: with no effect

Question: With S190P as the variant, how does the “effect of a mutation on the interaction” value read?
Answer: with no effect

Variants of: B8
Conditions: with sept3_human SEPTIN3, Q9UH03
Sequence of sept3_human SEPTIN3, Q9UH03 (Q9UH03 whole entry): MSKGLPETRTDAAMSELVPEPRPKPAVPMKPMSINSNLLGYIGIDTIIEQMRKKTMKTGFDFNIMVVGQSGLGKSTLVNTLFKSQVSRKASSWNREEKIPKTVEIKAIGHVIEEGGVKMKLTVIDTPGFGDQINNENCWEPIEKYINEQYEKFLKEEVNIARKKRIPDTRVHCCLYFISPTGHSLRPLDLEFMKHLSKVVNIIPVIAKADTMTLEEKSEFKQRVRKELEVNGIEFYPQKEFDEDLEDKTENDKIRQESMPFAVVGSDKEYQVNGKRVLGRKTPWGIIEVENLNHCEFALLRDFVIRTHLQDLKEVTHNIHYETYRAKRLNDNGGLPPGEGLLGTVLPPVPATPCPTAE

Question: How did the “effect of a mutation on the interaction” value turn out when V310L was run?
Answer: with no effect

Variants of: B8
Conditions: with wasl_human WASL

Question: With V310L as the variant, how does the “effect of a mutation on the interaction” value read?
Answer: with no effect

Variants of: B9
Conditions: with cc136_human CCDC136, Q96JN2
Sequence of cc136_human CCDC136, Q96JN2 (Q96JN2 whole entry): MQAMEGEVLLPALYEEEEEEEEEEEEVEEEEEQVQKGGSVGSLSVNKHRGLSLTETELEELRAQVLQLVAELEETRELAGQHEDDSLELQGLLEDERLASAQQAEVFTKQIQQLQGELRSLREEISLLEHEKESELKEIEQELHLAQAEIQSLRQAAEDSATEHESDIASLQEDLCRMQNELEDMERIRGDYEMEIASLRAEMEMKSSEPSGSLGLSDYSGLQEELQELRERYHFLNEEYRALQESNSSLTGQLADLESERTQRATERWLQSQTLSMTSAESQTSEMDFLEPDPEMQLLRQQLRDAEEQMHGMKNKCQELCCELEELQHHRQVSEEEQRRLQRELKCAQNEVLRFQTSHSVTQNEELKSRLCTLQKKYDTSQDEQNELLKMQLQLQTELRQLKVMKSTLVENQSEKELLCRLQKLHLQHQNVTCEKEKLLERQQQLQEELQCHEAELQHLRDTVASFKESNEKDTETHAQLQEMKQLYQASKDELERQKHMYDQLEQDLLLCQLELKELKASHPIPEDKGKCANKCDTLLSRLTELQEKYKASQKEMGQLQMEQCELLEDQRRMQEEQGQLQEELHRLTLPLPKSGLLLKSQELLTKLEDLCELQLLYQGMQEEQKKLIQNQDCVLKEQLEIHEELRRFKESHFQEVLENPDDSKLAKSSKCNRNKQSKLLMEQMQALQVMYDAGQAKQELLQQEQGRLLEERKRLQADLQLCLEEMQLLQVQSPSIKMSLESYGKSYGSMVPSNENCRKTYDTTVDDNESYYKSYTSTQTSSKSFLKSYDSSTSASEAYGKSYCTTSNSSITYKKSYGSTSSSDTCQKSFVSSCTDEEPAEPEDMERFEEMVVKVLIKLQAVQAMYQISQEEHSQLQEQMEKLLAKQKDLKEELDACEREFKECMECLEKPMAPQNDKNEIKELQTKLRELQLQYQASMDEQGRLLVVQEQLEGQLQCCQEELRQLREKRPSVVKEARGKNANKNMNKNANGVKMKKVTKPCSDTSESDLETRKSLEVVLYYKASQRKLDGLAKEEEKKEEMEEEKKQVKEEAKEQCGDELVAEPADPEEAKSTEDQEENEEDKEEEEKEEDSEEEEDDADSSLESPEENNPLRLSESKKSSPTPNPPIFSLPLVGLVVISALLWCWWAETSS

Question: Which “effect of a mutation on the interaction” value does the source give for R256C here?
Answer: disrupting interaction strength
